Source: article PMC8298264, “Function of cofactor Akirin2 in the regulation of gene expression in model human neutrophil-like HL60 cells” (Bioscience Reports, 2021)

B1: sp¦P49458¦SRP09_HUMAN (protein, UniProt P49458 2-86, looked up)
Signal recognition particle 9 …: PQYQTWEEFSRAAEKLYLADPMKARVVLKYRHSDGNLCVKVTDDLVCLVYKTDQAQDVKKIEKFHSQLMRLMVAKEARNVTMETE
B2: sp¦Q9BY43¦CHM4A_HUMAN (protein, UniProt Q9BY43 1-222, looked up)
Charged multivesicular body …: MSGLGRLFGKGKKEKGPTPEEAIQKLKETEKILIKKQEFLEQKIQQELQTAKKYGTKNKRAALQALRRKKRFEQQLAQTDGTLSTLEFQREAIENATTNAEVLRTMELAAQSMKKAYQDMDIDKVDELMTDITEQQEVAQQISDAISRPMGFGDDVDEDELLEELEELEQEELAQELLNVGDKEEEPSVKLPSVPSTHLPAGPAPKVDEDEEALKQLAEWVS
B3: sp¦P54727¦RD23B_HUMAN (protein, UniProt P54727 1-409, looked up)
UV excision repair protein …: MQVTLKTLQQQTFKIDIDPEETVKALKEKIESEKGKDAFPVAGQKLIYAGKILNDDTALKEYKIDEKNFVVVMVTKPKAVSTPAPATTQQSAPASTTAVTSSTTTTVAQAPTPVPALAPTSTPASITPASATASSEPAPASAAKQEKPAEKPAETPVATSPTATDSTSGDSSRSNLFEDATSALVTGQSYENMVTEIMSMGYEREQVIAALRASFNNPDRAVEYLLMGIPGDRESQAVVDPPQAASTGAPQSSAVAAAAATTTATTTTTSSGGHPLEFLRNQPQFQQMRQIIQQNPSLLPALLQQIGRENPQLLQQISQHQEHFIQMLNEPVQEAGGQGGGGGGGSGGIAEAGSGHMNYIQVTPQEKEAIERLKALGFPEGLVIQAYFACEKNENLAANFLLQQNFDED
B4: sp¦P10599¦THIO_HUMAN (protein, UniProt P10599 2-105, looked up)
Thioredoxin: VKQIESKTAFQEALDAAGDKLVVVDFSATWCGPCKMIKPFFHSLSEKYSNVIFLEVDVDDCQDVASECEVKCMPTFQFFKKGQKVGEFSGANKEKLEATINELV
B5: sp¦O75937¦DNJC8_HUMAN (protein, UniProt O75937 2-253, looked up)
DnaJ homolog subfamily C …: AASGESGTSGGGGSTEEAFMTFYSEVKQIEKRDSVLTSKNQIERLTRPGSSYFNLNPFEVLQIDPEVTDEEIKKRFRQLSILVHPDKNQDDADRAQKAFEAVDKAYKLLLDQEQKKRALDVIQAGKEYVEHTVKERKKQLKKEGKPTIVEEDDPELFKQAVYKQTMKLFAELEIKRKEREAKEMHERKRQREEEIEAQEKAKREREWQKNFEESRDGRVDSWRNFQANTKGKKEKKNRTFLRPPKVKMEQRE
B6: sp¦Q8WW12¦PCNP_HUMAN (protein, UniProt Q8WW12 2-178, looked up)
PEST proteolytic …: ADGKAGDEKPEKSQRAGAAGGPEEEAEKPVKTKTVSSSNGGESSSRSAEKRSAEEEAADLPTKPTKISKFGFAIGSQTTKKASAISIKLGSSKPKETVPTLAPKTLSVAAAFNEDEDSEPEEMPPEAKMRMKNIGRDTPTSAGPNSFNKGKHGFSDNQKLWERNIKSHLGNVHDQDN
B7: sp¦P52209¦6PGD_HUMAN (protein, UniProt P52209 1-483, looked up)
6-phosphogluconate …: MAQADIALIGLAVMGQNLILNMNDHGFVVCAFNRTVSKVDDFLANEAKGTKVVGAQSLKEMVSKLKKPRRIILLVKAGQAVDDFIEKLVPLLDTGDIIIDGGNSEYRDTTRRCRDLKAKGILFVGSGVSGGEEGARYGPSLMPGGNKEAWPHIKTIFQGIAAKVGTGEPCCDWVGDEGAGHFVKMVHNGIEYGDMQLICEAYHLMKDVLGMAQDEMAQAFEDWNKTELDSFLIEITANILKFQDTDGKHLLPKIRDSAGQKGTGKWTAISALEYGVPVTLIGEAVFARCLSSLKDERIQASKKLKGPQKFQFDGDKKSFLEDIRKALYASKIISYAQGFMLLRQAATEFGWTLNYGGIALMWRGGCIIRSVFLGKIKDAFDRNPELQNLLLDDFFKSAVENCQDSWRRAVSTGVQAGIPMPCFTTALSFYDGYRHEMLPASLIQAQRDYFGAHTYELLAKPGQFIHTNWTGHGGTVSSSSYNA
B8: sp¦O43396¦TXNL1_HUMAN (protein, UniProt O43396 2-289, looked up)
Thioredoxin-like protein 1: VGVKPVGSDPDFQPELSGAGSRLAVVKFTMRGCGPCLRIAPAFSSMSNKYPQAVFLEVDVHQCQGTAATNNISATPTFLFFRNKVRIDQYQGADAVGLEEKIKQHLENDPGSNEDTDIPKGYMDLMPFINKAGCECLNESDEHGFDNCLRKDTTFLESDCDEQLLITVAFNQPVKLYSMKFQGPDNGQGPKYVKIFINLPRSMDFEEAERSEPTQALELTEDDIKEDGIVPLRYVKFQNVNSVTIFVQSNQGEEETTRISYFTFIGTPVQATNMNDFKRVVGKKGESH
B9: sp¦Q9HB71¦CYBP_HUMAN (protein, UniProt Q9HB71 2-228, looked up)
Calcyclin-binding protein: ASEELQKDLEEVKVLLEKATRKRVRDALTAEKSKIETEIKNKMQQKSQKKAELLDNEKPAAVVAPITTGYTVKISNYGWDQSDKFVKIYITLTGVHQVPTENVQVHFTERSFDLLVKNLNGKSYSMIVNNLLKPISVEGSSKKVKTDTVLILCRKKVENTRWDYLTQVEKECKEKEKPSYDTETDPSEGLMNVLKKIYEDGDDDMKRTINKAWVESREKQAKGDTEF
B10: sp¦P68104¦EF1A1_HUMAN (protein, UniProt P68104 2-462, looked up)
Elongation factor 1-alpha 1: GKEKTHINIVVIGHVDSGKSTTTGHLIYKCGGIDKRTIEKFEKEAAEMGKGSFKYAWVLDKLKAERERGITIDISLWKFETSKYYVTIIDAPGHRDFIKNMITGTSQADCAVLIVAAGVGEFEAGISKNGQTREHALLAYTLGVKQLIVGVNKMDSTEPPYSQKRYEEIVKEVSTYIKKIGYNPDTVAFVPISGWNGDNMLEPSANMPWFKGWKVTRKDGNASGTTLLEALDCILPPTRPTDKPLRLPLQDVYKIGGIGTVPVGRVETGVLKPGMVVTFAPVNVTTEVKSVEMHHEALSEALPGDNVGFNVKNVSVKDVRRGNVAGDSKNDPPMEAAGFTAQVIILNHPGQISAGYAPVLDCHTAHIACKFAELKEKIDRRSGKKLEDGPKFLKSGDAAIVDMVPGKPMCVESFSDYPPLGRFAVRDMRQTVAVGVIKAVDKKAAGAGKVTKSAQKAQKAK
B11: sp¦O75792¦RNH2A_HUMAN (protein, UniProt O75792 1-299, looked up)
Ribonuclease H2 subunit A: MDLSELERDNTGRCRLSSPVPAVCRKEPCVLGVDEAGRGPVLGPMVYAICYCPLPRLADLEALKVADSKTLLESERERLFAKMEDTDFVGWALDVLSPNLISTSMLGRVKYNLNSLSHDTATGLIQYALDQGVNVTQVFVDTVGMPETYQARLQQSFPGIEVTVKAKADALYPVVSAASICAKVARDQAVKKWQFVEKLQDLDTDYGSGYPNDPKTKAWLKEHVEPVFGFPQFVRFSWRTAQTILEKEAEDVIWEDSASENQEGLRKITSYFLNEGSQARPRSSHRYFLERGLESATSL
B12: sp¦P04075¦ALDOA_HUMAN (protein, UniProt P04075 2-364, looked up)
Fructose-bisphosphate …: PYQYPALTPEQKKELSDIAHRIVAPGKGILAADESTGSIAKRLQSIGTENTEENRRFYRQLLLTADDRVNPCIGGVILFHETLYQKADDGRPFPQVIKSKGGVVGIKVDKGVVPLAGTNGETTTQGLDGLSERCAQYKKDGADFAKWRCVLKIGEHTPSALAIMENANVLARYASICQQNGIVPIVEPEILPDGDHDLKRCQYVTEKVLAAVYKALSDHHIYLEGTLLKPNMVTPGHACTQKFSHEEIAMATVTALRRTVPPAVTGITFLSGGQSEEEASINLNAINKCPLLKPWALTFSYGRALQASALKAWGGKKENLKAAQEEYVKRALANSLACQGKYTPSGQAGAAASESLFVSNHAY

tested on: human HL60 cells; assay: SWATH-MS proteomics, differential protein representation, akirin2 KO vs WT HL60 cells; format: cell-based; settings: Over-represented in KO; KO vs WT HL60 cells
Description: Total proteins were extracted from WT and akirin2 KO HL60 cells using the AllPrep DNA/RNA/Protein Mini Kit (Qiagen) and protein concentration was determined using the BCA Protein Assay with BSA (Sigma–Aldrich) as standard. Protein extracts (150 µg per sample, n=3 biological replicates) from each WT and KO cells were trypsin digested using the FASP Protein Digestion Kit (Expedeon Ltd., Abcam, Cambridge, U.K.) and sequencing grade trypsin (Promega, Madison, WI, U.S.A.) following manufacturer’s recommendations. The resulting peptides were finally desalted on to OMIX Pipette tips C18 (Agilent Technologies, Santa Clara, CA, U.S.A.), dried down and stored at −20 °C until mass spectrometry analysis. […] Three micrograms of each protein digest from the three biological replicates of WT and akirin2 KO HL60 cells were used for the generation of the reference spectral ion library as part of the SWATH-MS analysis.
Peptides were eluted in a 120-min gradient from 5 to 30% solvent B in solvent A followed by 15-min gradient from 30 to 60% solvent B in solvent A (solvent A: 0.1% formic acid in water, solvent B: 0.1% formic acid in acetonitrile) and directly injected into the mass spectrometer for analysis. For IDA experiments, the mass spectrometer was set to scanning full spectra (350–1400 m/z) using 250 ms accumulation time per spectrum, followed by up to 50 MS/MS scans (100–1500 m/z). Candidate ions with a charge state between +2 and +5 counts per second above a minimum threshold of 100 were isolated for fragmentation. One MS/MS spectrum was collected for 100 ms, before adding those precursor ions to the exclusion list for 15 s (mass spectrometer operated by Analyst TF 1.6, AB Sciex). Dynamic background subtraction was turned off. MS/MS analyses were recorded in high-sensitivity mode with rolling collision energy on and a collision energy spread of 5. For SWATH quantitative analysis, six independent samples (three replicates from WT and akirin2 KO HL60 cells, 5 µg each) were subjected to the cyclic DIA of mass spectra using the SWATH variable windows calculator (V 1.0, AB Sciex) and the SWATH acquisition method editor (AB Sciex), similar to established methods. […] For these experiments, a 50-ms survey scan (350–1400 m/z) was acquired at the beginning of each cycle, and SWATH–MS/MS spectra were collected from 100–1500 m/z for 70 ms at high-sensitivity mode, resulting in a cycle time of 3.6 s. Collision energy for each window was determined according to the calculation for a charge +2 ion-centered upon the window with a collision energy spread of 15. To create a spectral library of all the detectable peptides in the samples, the IDA MS raw files were combined and subjected to database search in unison using ProteinPilot software v. 5.0.1 (AB Sciex) with the Paragon algorithm. […] The detected protein threshold was set at 0.05. An independent false discovery rate (FDR) analysis, using the target–decoy approach provided by Protein Pilot (AB Sciex; https://sciex.com/products/software/proteinpilot-software), was used to assess the quality of identifications. Positive identifications were considered when identified proteins reached 1% of global FDR. […] Global normalization was performed according to the Total Area Sums (TAS) of all detected proteins in the samples. […] Heatmaps were prepared using the Heatmapper (http://www.heatmapper.ca/expression/) with average linkage and Euclidean distance measurement method.

Compared with B1, B2 is higher in “Fold Change” value: 1.349 for the first, 1.396 for the second.

Going from B3 to B4, the “Fold Change” value rises from 1.363 to 1.394.

First: B5
Second: B6
The “Fold Change” value of the first is lower: 1.352 for the first, 1.373 for the second.

Going from B7 to B8, the “Fold Change” value falls from 1.367 to 1.348.

B1 and B2 are within 0.2 log units of each other in “Log (Fold Change)” value: 0.1301 for the first, 0.1447 for the second.

B3 and B4 are within 0.2 log units of each other in “Log (Fold Change)” value: 0.1346 for the first, 0.1444 for the second.

B5 and B6 are within 0.2 log units of each other in “Log (Fold Change)” value: 0.1309 for the first, 0.1375 for the second.

B7 and B8 are within 0.2 log units of each other in “Log (Fold Change)” value: 0.1359 for the first, 0.1296 for the second.

same assay, conditions: SWATH-MS, akirin2 KO vs WT HL60 cells; over-represented in KO

First: B9
Second: B10
The “Fold Change” value of the first is lower: 1.407 for the first, 1.443 for the second.

First: B11
Second: B12
The “Fold Change” value of the first is higher: 1.47 for the first, 1.436 for the second.

B9 and B10 are within 0.2 log units of each other in “Log (Fold Change)” value: 0.1482 for the first, 0.1593 for the second.

B11 and B12 are within 0.2 log units of each other in “Log (Fold Change)” value: 0.1673 for the first, 0.1572 for the second.
